± gives the uncertainty stated by the source.

This series can be described thus: amyloid nucleation score (Sup35N fusion, yeast selection) (log enrichment); library NNK2; higher = more nucleation; inactive = no reads after selection. The procedure, abridged:
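On medium lacking adenine and uracil, psi-negative yeast expressing peptides of 20 random codons fused to Sup35N were grown 7 days at 30°C after a 24-hour induction with 100 μM copper sulfate. Illumina sequencing of input and output plasmid inserts gave the reads, and sequences under 100 input reads were excluded. The nucleation score is the DiMSum log enrichment of output over input reads, centred on the mode score of non-aggregating sequences.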
In turn, WCGREVNLHALLCKIDRLTI gave an amyloid nucleation score of 0.598 ± 0.49.
Turning to LSSEVISSSHALQKTSICRF, the amyloid nucleation score amounted to 2.72 ± 0.13.
For LFGFLTTRVPWIFSWMVPTA, the amyloid nucleation score is -0.003 ± 0.44.
To FFIIGDCGVLSCPAGGQLWS belongs 7.177 ± 0.037.
For the substance VFLFDLGYQGR, the amyloid nucleation score was 6.67 ± 0.073.
HSSSDVCT returned an amyloid nucleation score of 5.295 ± 0.049.
Substance GVIWVCIRCDHGGTAMRLLW registered an amyloid nucleation score of 1.25 ± 0.45.
Substance VVLYCFISLLKFIEIGEGHP displayed an amyloid nucleation score of -1.24 ± 1.1.
In turn, LCVSAVLKLVGNLWDDEREC had an amyloid nucleation score of -0.091 ± 0.79.
GNVGL displayed an amyloid nucleation score of 1.86 ± 0.078.
As for QGPHARRHPTFRHKLYVLVI, the amyloid nucleation score was determined as 3.54 ± 0.099.
In turn, IPPSLCARKLRCYYVGAEG showed an amyloid nucleation score of 0.249 ± 0.64.
To GYLLGSDSGDGGPFVIERIK belongs 0.687 ± 0.38; to CMPPRLWMW, -0.137 ± 1.1.
The result for RRNNNFLWIDLNLMLPCYDW reads 7.75 ± 0.08; that for TYNGMFTQLAFG, 3.48 ± 0.07.
As to DTALFYSNNVMTSKVGAQKS, the amyloid nucleation score was -0.003 ± 1.1.
The substance FFKISQSTTTEQLVYSCYSS came in with an amyloid nucleation score of 3.02 ± 0.095.
YFGMISERFRFPVYFQNSPR yielded an amyloid nucleation score of -1.14 ± 1.1.
To KIVLGYCVLKITEQELMLWV belongs “inactive”.
Substance VGLCVLFRWLHKTWMMEWLG yielded an amyloid nucleation score of 0.426 ± 0.35.
To FALREYGYLSSYYFCMGGPT belongs 3.56 ± 0.094; to SYMDE, 4.33 ± 0.06.
To KSVKIVSSAMKGWIHSTYSR belongs -0.316 ± 0.28.
As to LYQVRGTY, the amyloid nucleation score was 0.353 ± 0.22.
On to SALERVKSWSQGNNSIGDHI, for which the amyloid nucleation score was -0.418 ± 1.1.
On to IFEVRLPQELSSYSHFGGGC, for which the amyloid nucleation score was 0.706 ± 0.74.
As to LKKFVPPELRSADVDRKCSK, the amyloid nucleation score result is “inactive”.
On to EYRSDCMDYLGDVCWCPNIL, for which the amyloid nucleation score result is “inactive”.
Turning to TFFDGSCLVRLSWAQLEFLT, the amyloid nucleation score is -0.471 ± 0.41.
The substance VNGPEDPPVHKLMKSTRRSC had an amyloid nucleation score of 2.79 ± 0.088.
RRYAKNMFRDLGWPVPTRSD displayed an amyloid nucleation score of 3.09 ± 0.11.
The substance FSKSVVGSPERKHVDT yielded an amyloid nucleation score of 0.948 ± 0.34.
To NLCGCAMVCWVPF belongs -0.217 ± 0.54; to SNLSRDESRVGSTGEQGDGG, -0.38 ± 0.55; to YYINVDQESGSWMRTSVKGA, 0.207 ± 0.41.
The result for CDPWQGYRWLP reads -0.665 ± 0.37; that for EFLRRD, 0.055 ± 0.26; that for PHVRTFRRFRWMY, -0.251 ± 0.39.
Regarding YIVDGVGCNCHTGSIVEMSL, the amyloid nucleation score is -0.618 ± 0.32.
LELHMGNLSSSTAYWLRRYS: the amyloid nucleation score was -0.426 ± 0.48.
To ALRTPCYSAMHLGAWVFVCF belongs 3.31 ± 0.14.
For the substance TYSVGSSYCLRRSFGAGFFS, the amyloid nucleation score was determined as 0.728 ± 0.25.
As to CVVTSVIENGFFLQFIMFYQ, the amyloid nucleation score entry was “inactive”.
In turn, MSGEDSGCLWDCNVYSRLDV gave an amyloid nucleation score of -0.486 ± 0.74.
As to FMTGSFEENS, the amyloid nucleation score is -0.945 ± 1.1.
With SYIGFVSIGSNMNRCSFDKF, the amyloid nucleation score is -0.116 ± 0.29.
RLSCKED registered an amyloid nucleation score of 0.108 ± 0.61.
To TSFFPIILKRVPSIKLGTRK belongs “inactive”.
Regarding HLHGCIAMCASSSLIAGCTE, the amyloid nucleation score is -0.603 ± 0.78.
Turning to SLRLCLDTMEFRVFKNLGRV, the amyloid nucleation score came out at 1.45 ± 0.099.
YTISSIVVLDMFS had an amyloid nucleation score of 1.41 ± 0.21.
To LMFTCVMSFWRLSVRVILNY belongs 0.277 ± 0.41; to LMYGKEWSMEQIVGTSTFGY, -1.36 ± 0.48; to GLGYSLICNLTSICGKNNV, -0.147 ± 1.1.
Regarding YRARKASLTDVSSSVKVNMS, the amyloid nucleation score was -0.026 ± 0.63.
